In patent US20240383964A1, “De Novo Designed alpha(5) beta(1) Integrin selective minibinders” (UNIVERSITY OF WASHINGTON, priority 2023, published 2024):
The star is where a group is joined. Biotin = O=C1N[C@H]2[C@H](CS[C@H]2CCCCC(=O)*)N1

Experiments:
integrin αvβ8 = target: T1, integrin αvβ8 (UniProt P06756 31-992; P26012 43-684); assay: BLI (Octet), minibinder on the sensor, integrin αvβ8 in solution [panel αvβ8]
T1 construct: also called avb8
Procedure: (§1) Because of the large size of integrin and the distribution of integrin α5β1 on the cell surface, it was of interest to measure the affinity of the binders on the cell surface. Using wild type A562, the binding affinity of binders to α5β1 was measured, which is the only RGD binding integrin expressed in WT A562.
(§2) Prior to measurements, streptavidin-coated biosensors were first equilibrated for at least 10 min in assay buffer. Protein binders with an N-terminal biotin were immobilized onto the biosensors by dipping them into a solution with 100 nM protein until the response reached between 10% and 50% of the maximum value followed by dipping sensors into fresh buffer to establish a baseline for 120 s. Titration experiments were performed at 25 degrees Celsius while rotating at 1000 rpm. Association of integrins was allowed by dipping biosensors in solutions containing designed protein diluted in buffer until equilibrium was approached followed by dissociation by dipping the biosensors into fresh buffer solution to monitor the dissociation kinetics. In the minibinder binding cross specificity assays each biotinylated minibinder was loaded onto streptavidin biosensors in equal amounts followed by 2 min of baseline equilibration. The association and dissociation with all the different binders were allowed for 900-1500 s for each step. […]

integrin α8β1 = target: T2, integrin α8β1 (UniProt P53708 39-1012; P05556 21-728); assay: BLI (Octet), minibinder on the sensor, integrin α8β1 in solution [panel α8β1]
T2 construct: also called a8b1
Procedure: as §1, §2

integrin α5β1 [1] = target: T3, integrin α5β1 (UniProt P08648 42-995; P05556 21-728); assay: BLI, integrin resting buffer (1 mM MgCl2, 1 mM CaCl2, pH 7.4), binder immobilised; BLI, integrin resting buffer pH 7.4 with 1 mM MgCl2, 1 mM CaCl2
T3 construct: also called alpha(5) beta(1) integrin; a5b1
Procedure: (§3) The binding affinity of each variant was calculated as described in Cao et al, 2022. By combining the beneficial mutations, combination libraries were constructed and screened for binding to α5β1 at an affinity as low as 200 pico-molar (FIG. 4). […] Because RGD binding depends on metal ions, the binders were tested for binding to integrin without metal ions. […] Similarly, mutating the RGD motif to GGG also abolished the binding ability. […] This is surprising, and provides a tool to track integrin α5β1 in endosome and lysosome.
(§4) Prior to measurements, streptavidin-coated biosensors were first equilibrated for at least 10 min in assay buffer. Protein binders with an N-terminal biotin were immobilized onto the biosensors by dipping them into a solution with 100 nM protein until the response reached between 10% and 50% of the maximum value followed by dipping sensors into fresh buffer to establish a baseline for 120 s. Titration experiments were performed at 25 degrees Celsius while rotating at 1000 rpm. Association of integrins was allowed by dipping biosensors in solutions containing designed protein diluted in buffer until equilibrium was approached followed by dissociation by dipping the biosensors into fresh buffer solution to monitor the dissociation kinetics.

integrin α5β1 [2] = target: T3, integrin α5β1; assay: BLI (Octet), minibinder on the sensor, integrin α5β1 in solution at labelled concentrations up to 200 nM; buffer 1 mM Ca2+, 1 mM Mg2+, pH 5 [lower left panel]
Procedure: as §3, §4

integrin αvβ1 = target: T4, integrin αvβ1 (UniProt P06756 31-992; P05556 21-728); assay: BLI (Octet), minibinder on the sensor, integrin αvβ1 in solution [panel αvβ1]
T4 construct: also called avb1
Procedure: as §1, §2

[3] = target: T5, integrin α5β1 on the cell surface (UniProt P08648 42-1049; P05556 21-798); assay: cell surface titration on wild type K562 cells, readout Binder Bound Cells (%)
T5 construct: whole, on cells; HUVECs in the functional assays; also called α5β1 on wild type K562 (printed also A562) cells; α5β1 on HUVECs

integrin αvβ3 = target: T6, integrin αvβ3 (UniProt P06756 31-992; P05106 27-718); assay: BLI (Octet), minibinder on the sensor, integrin αvβ3 in solution [panel αvβ3]
T6 construct: also called avb3
Procedure: as §1, §2

integrin α5β1 [4] = target: T3, integrin α5β1; assay: BLI (Octet), 00179_v4.1 RGD→GGG on the sensor, integrin α5β1 in solution; 1 mM Ca2+, 1 mM Mg2+, pH 7.4 [lower right panel]
Procedure: as §3, §4

HUVECs = assay: Scratch-wound cell migration assay; assay type: cell-based, human; conditions: 20 nM, 12 hours, compared to PBS control
Procedure: FIG. 2. (A) BLI binding affinity traces for minibinder or ^8RGD^10/GGG mutant against α5β1 in indicated buffers. Minibinder affinity to integrin α5β1 is dependent on metal ion presence and RGD motif. All affinity data was collected by Octet™ R8 and binding affinity was estimated by the Octet™ ForteBio software package. (B) Minibinder has no detectable affinity in presence of 500 nM or 1000 nM integrin αvβ1, αvβ3, αvβ6, αvβ8 and α8β1. (C) Cell surface titration of minibinder 4584_V5.3 and 00179_v4.1 against K562 cells wild type. […] Integrin α5 subunit and β1 subunit were stained with integrin α5 and active integrin β1 subunit specific antibody, respectively. (E) Quantification of (D). Quantification was counted as a percentage of mb-sheets that colocalized with staining of a5 and b1, a5 only, b1 only, or none; 30-35 sheets were counted in each biological repeat. […] Minibinders were added to HUVEC cells at 0, 0.1, 1, 10, and 100 nM. Vascular stability was analyzed at 12-h timepoints. 20 images were taken in each well at random locations. The scale bar is 100 μm. (G) Quantification of (F). The number of nodes, meshes, and tubes from images in (F) were quantified using an angiogenesis analyzer plug-in in ImageJ. Statistical significance of each were analyzed using One-way Anova Bonferroni's multiple comparison test. […] The wound area of T0 and T12 time points were quantified using imageJ and level of cell migration were calculated using this equation (AreaT0-T12)/AreaT0, all samples were normalized to PBS as fold change.
The inhibitory effect of 20 nM soluble 00179_v4.1 on cell migration was assessed using the scratch-wound assay. HUVECs were seeded with either 00179_v4.1 or PBS (used as a […] control) for 12 hours before capturing images for analysis.

T3 sequence (P08648 42-995, chain 1 of 2): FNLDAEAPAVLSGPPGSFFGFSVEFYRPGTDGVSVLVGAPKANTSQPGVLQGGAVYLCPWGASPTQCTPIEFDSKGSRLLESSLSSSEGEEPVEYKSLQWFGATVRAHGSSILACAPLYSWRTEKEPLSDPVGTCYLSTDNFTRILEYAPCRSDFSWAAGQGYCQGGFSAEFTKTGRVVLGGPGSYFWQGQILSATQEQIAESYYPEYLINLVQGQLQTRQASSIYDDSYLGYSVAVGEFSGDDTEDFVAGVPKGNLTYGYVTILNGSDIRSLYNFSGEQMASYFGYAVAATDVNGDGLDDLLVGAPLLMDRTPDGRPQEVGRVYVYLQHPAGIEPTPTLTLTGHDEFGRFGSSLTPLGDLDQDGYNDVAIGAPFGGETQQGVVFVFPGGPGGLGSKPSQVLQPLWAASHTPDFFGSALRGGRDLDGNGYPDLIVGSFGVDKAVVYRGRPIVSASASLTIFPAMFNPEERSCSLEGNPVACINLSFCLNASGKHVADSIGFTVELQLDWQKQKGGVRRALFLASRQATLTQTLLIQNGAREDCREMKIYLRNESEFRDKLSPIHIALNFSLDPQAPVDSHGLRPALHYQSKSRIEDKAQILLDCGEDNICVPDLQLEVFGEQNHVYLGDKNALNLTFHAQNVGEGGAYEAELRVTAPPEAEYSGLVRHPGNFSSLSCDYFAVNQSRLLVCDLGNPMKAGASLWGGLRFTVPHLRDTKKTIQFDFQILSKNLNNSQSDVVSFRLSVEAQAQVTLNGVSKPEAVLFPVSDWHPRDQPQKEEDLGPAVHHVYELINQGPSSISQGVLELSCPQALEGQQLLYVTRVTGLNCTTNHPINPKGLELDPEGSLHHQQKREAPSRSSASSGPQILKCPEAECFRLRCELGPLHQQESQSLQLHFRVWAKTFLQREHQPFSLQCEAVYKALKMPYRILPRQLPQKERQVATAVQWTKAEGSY
T3 sequence (P05556 21-728, chain 2 of 2): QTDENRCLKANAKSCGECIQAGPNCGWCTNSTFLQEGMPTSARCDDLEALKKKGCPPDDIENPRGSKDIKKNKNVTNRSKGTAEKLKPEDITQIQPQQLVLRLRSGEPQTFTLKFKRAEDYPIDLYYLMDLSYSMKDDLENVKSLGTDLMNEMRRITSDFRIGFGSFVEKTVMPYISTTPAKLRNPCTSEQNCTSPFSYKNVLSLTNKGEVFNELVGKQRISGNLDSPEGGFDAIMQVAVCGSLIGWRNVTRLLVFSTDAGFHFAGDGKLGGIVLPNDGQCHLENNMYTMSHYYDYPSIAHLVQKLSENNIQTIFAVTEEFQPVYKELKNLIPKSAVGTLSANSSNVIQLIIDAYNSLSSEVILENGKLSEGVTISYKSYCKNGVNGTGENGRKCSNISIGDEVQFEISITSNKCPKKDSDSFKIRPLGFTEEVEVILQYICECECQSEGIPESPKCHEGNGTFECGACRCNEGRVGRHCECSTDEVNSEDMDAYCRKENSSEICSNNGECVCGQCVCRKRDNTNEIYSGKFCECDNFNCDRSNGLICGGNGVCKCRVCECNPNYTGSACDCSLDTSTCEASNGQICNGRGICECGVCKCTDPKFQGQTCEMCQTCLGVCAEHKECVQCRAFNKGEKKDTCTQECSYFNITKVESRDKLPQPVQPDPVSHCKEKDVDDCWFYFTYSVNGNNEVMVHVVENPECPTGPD
T5 sequence (P08648 42-1049, chain 1 of 2): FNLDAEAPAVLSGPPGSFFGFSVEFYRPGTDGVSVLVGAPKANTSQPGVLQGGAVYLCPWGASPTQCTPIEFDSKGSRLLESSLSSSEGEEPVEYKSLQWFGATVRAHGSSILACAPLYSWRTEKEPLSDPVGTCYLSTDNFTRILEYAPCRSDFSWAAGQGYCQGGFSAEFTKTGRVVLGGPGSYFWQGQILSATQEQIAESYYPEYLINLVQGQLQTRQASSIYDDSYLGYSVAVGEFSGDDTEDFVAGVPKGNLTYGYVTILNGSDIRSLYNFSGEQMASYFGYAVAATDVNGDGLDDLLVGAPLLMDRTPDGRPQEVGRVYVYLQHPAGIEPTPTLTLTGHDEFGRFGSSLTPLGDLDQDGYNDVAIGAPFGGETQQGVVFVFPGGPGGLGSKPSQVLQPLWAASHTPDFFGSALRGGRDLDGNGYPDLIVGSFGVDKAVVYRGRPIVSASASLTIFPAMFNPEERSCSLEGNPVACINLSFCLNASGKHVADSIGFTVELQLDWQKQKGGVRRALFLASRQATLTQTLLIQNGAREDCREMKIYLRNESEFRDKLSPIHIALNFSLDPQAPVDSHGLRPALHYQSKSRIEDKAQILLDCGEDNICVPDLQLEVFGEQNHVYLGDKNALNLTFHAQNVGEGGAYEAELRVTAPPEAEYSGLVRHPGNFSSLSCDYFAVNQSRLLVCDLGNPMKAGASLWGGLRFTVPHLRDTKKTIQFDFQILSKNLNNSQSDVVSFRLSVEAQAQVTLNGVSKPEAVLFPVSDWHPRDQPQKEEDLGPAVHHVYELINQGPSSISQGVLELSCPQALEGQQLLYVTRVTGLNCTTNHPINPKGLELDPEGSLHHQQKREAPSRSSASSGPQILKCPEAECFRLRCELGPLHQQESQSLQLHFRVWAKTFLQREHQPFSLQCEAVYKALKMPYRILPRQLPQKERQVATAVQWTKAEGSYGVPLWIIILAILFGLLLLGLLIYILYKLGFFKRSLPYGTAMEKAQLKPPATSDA
T5 sequence (P05556 21-798, chain 2 of 2): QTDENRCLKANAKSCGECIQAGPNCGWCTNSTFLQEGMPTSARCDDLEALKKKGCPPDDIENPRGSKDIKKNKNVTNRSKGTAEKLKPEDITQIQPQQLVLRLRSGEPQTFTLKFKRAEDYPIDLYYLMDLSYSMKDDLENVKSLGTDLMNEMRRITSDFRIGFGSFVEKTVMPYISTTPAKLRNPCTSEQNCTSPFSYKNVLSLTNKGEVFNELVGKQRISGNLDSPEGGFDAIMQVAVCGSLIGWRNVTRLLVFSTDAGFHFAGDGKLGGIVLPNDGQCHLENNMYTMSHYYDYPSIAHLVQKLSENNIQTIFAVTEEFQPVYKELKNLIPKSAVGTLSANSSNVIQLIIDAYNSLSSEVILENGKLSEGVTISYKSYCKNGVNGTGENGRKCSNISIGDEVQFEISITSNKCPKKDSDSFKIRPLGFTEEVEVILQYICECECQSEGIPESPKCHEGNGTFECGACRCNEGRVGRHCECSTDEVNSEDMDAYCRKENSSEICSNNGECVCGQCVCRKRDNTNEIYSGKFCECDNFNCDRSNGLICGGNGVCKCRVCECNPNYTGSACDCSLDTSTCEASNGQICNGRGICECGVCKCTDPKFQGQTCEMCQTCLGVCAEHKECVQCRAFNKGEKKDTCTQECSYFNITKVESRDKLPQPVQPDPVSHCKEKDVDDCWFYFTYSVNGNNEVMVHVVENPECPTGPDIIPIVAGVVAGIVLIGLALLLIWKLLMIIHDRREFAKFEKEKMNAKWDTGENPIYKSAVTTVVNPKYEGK
T6 sequence (P06756 31-992, chain 1 of 2): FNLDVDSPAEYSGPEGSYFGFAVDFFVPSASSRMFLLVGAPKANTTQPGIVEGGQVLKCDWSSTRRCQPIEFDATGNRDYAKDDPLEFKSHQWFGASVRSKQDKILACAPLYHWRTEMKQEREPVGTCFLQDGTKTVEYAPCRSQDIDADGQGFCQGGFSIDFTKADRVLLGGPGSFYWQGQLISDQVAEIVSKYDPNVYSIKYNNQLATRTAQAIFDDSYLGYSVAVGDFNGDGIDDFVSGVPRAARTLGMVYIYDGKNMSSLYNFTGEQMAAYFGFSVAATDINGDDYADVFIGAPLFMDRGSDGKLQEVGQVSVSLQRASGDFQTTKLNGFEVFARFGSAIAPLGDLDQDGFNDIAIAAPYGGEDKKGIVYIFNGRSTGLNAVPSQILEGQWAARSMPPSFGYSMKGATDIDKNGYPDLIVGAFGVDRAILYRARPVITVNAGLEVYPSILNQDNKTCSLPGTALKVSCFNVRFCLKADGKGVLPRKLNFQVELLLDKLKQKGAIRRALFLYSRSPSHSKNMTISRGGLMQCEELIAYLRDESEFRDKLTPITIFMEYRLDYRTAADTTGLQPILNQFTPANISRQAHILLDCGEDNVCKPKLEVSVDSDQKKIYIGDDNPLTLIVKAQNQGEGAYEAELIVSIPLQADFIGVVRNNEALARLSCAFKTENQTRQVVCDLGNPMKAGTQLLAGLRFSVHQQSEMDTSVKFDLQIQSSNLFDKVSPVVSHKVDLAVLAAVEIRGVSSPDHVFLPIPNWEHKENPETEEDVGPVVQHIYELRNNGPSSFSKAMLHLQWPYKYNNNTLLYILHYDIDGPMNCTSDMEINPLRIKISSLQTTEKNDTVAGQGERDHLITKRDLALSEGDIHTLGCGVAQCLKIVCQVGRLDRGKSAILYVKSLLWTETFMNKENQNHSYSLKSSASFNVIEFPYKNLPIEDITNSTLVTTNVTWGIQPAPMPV
T6 sequence (P05106 27-718, chain 2 of 2): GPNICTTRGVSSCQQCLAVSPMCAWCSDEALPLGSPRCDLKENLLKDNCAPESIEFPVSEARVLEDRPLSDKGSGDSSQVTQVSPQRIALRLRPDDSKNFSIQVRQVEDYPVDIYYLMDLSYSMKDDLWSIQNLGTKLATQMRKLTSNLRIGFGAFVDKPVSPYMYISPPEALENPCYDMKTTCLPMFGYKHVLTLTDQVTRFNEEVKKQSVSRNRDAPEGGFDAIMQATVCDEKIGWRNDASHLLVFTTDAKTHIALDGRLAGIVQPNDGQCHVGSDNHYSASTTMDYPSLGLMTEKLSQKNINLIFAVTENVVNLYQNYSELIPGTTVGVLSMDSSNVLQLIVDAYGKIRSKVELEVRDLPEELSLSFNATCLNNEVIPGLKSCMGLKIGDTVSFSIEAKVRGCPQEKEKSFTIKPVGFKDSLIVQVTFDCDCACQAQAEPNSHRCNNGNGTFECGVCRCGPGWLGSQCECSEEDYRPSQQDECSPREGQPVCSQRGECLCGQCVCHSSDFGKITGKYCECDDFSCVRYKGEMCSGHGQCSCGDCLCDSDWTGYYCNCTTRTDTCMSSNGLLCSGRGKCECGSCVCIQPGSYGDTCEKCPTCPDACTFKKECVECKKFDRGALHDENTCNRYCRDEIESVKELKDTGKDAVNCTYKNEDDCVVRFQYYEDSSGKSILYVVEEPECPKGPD

B1: xw_a5b1_00179_v4.1 (designed binder)
chain: SELIIHGRGDFPSSELERLRERFERLGIKVRVDHKVLTLIGISEEEAERLARELRKRGIWVEIRK
modifications: also: N-terminal avi-tag/biotin for BLI, His6 tag at N- or C-terminus, tag sequences not given here
notes: a His6 tag stood at the N- or C-terminus
With B1 the binding result (integrin αvβ8) was “no binding (tested: 500 nM)”, the binding result (integrin α8β1) was “no binding (tested: 500 nM)” and the Kd (integrin α5β1 [1]) was 0.3 nM. The Kd (integrin α5β1 [2]) was 40 nM, the binding result (integrin αvβ1) was “no binding (tested: 500 nM)” and the “EC50 (read off the curve)” value [3] was ~2 nM. B1: no binding (tested: 500 nM) (integrin αvβ3).

B2: 8RGD10/GGG mutant of minibinder 00179_v4.1 (designed binder)
chain: Biotin-SELIIHGGGGFPSSELERLRERFERLGIKVRVDHKVLTLIGISEEEAERLARELRKRGIWVEIRK
notes: also called RGD/GGG mutant
B2: no binding (tested: 1000 nM) (integrin α5β1 [4]).

B3: xw_a5b1_004584v5.3 (designed binder)
chain: GEVEVHGRGDIPRSSLELFEKVAKELGLKVERNHRTVTVKGVSEEQIRELEEVAKKLGLWVLVRVTE
notes: Tags of the construct as assayed are not specified
B3: binds [3].

B4: C6-mb: hexamer formed by mixing 00179_v4.1_N-term-LHD101A (SEQ ID NO:16) and C6-71-9-1_101B (SEQ ID NO:17) at 6:1 ratio (protein)
chain 1: MSGRQEKVLKSIEETVRKMGVTMETHRSGNEVKVVIKGLHIKQQRQLYRDVRETSKKQGVETEIEVEGDTVTIVVREGGSGGSELIIHGRGDFPRSELERLRERFERLGIKVRVDHKVLTLIGISEEEAERLARELRKRGIWVEIRKGSGSHHWGSTHHHHHH
chain 2: MGRQEKVLKSIEETVRKMGVTMETHRSGNEVKVVIKGLHESQQEQLLEDVLRTAEKQGVRVRIRFKGDTVTIVVREGSPEEILERAKESLERAKEAFERGDEEEFRKAAEKALELAKRLVEQAKKEGDPELVFEAARVALWVAWLAAWFGDKEVFKKAAESALEVAKRLVEVAKEEGDPELVLKAAFVALLVAIMAVILGDKEVFKKAAESALEVAKRLVEIAAREGDPELVEEAAKVAELVRELAKLMGDEEVYEKARETAREVRLFLLFVRIWEGGGGSLEHHHHHH
modifications: 6:1 hexameric assembly; VARIANT 1 optionally absent; VARIANT 148..163 optionally absent; VARIANT 282..289 optionally absent
B4 was tested, and the cell migration (HUVECs) was “even more pronounced inhibition of cell migration” and the cell migration (HUVECs; listed as C6-oligomer) was “inhibits cell migration”.
